From the supplement of paper PMC12764529
± gives the half width of the 95% confidence interval.

What was measured:
[1] = folding stability dG unfold from chymotrypsin proteolysis; higher = more stable
Outline: (§1)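 Mini-proteins designed to be under 80 residues and free of cysteine were carried in a PA-tagged cDNA display construct and digested with trypsin and with chymotrypsin. Each protease was applied at 11 threefold-diluted concentrations, alongside a no-protease condition, before sequencing. K50 came from Bayesian fitting of the sequencing counts, and unfolding free energy was obtained by comparing it with a sequence-predicted unfolded-state K50 and a shared folded-state K50, for each protease separately or for both together. Designs were retained only if their AlphaFold2 dimer inter-PAE exceeded 15.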

[2] = folding stability dG unfold (combined trypsin and chymotrypsin); higher = more stable
Outline: as §1

[3] = folding stability dG unfold from trypsin proteolysis; higher = more stable
Outline: as §1

Sequence	folding stability dG unfold [1]	folding stability dG unfold [2]	folding stability dG unfold [3]
STKLLPFEEALKEAEKAIKEGKKKVNITIYTPDGKTFNLTDVEKVKEFIEKEFPGISLSELTVTVSITPPES [r1_325_JUSTAS]	3.53 ± 0.065 kcal/mol	3.3 ± 0.067 kcal/mol	2.86 ± 0.068 kcal/mol
STLEELLEAIEKLPPGAVVRITITLENGEKIELPIEMTVEELKEQLEALAAEHPGKKIEIKIEVIPKEELSA [r9_37_TrROS_Hall]	2.78 ± 0.28 kcal/mol	3.43 ± 0.56 kcal/mol	3.66 ± 0.38 kcal/mol
STLEQILDAIESMPPGWVFRIKIHHPNGEPHEHRFNMTYDDIKAQLENMIDHHPGQPIKIKIEFMPPEDFSA [r9_37_TrROS]	3.72 ± 0.077 kcal/mol	3.38 ± 0.064 kcal/mol	2.97 ± 0.11 kcal/mol
STLLEEAKAQAEAYLKAAGLELAPGDVVTLTVPYPGPLTLEITVHPGEKKLEITATDASTPTTHTLTFDESA [r9_426_JUSTAS]	1.16 ± 0.074 kcal/mol	1.03 ± 0.079 kcal/mol	0.831 ± 0.039 kcal/mol
STLPPGATRTFEFTDPATGKKITVTLTRLPDGTVRVTLTTTDPATGKTTTETFTLPGETLEALLALVEESSA [r9_618_JUSTAS]	4.86 ± 0.12 kcal/mol	4.68 ± 0.16 kcal/mol	4.28 ± 0.22 kcal/mol
STTEVEVTPLPGNSTLVTTTTTTPEFDPANGTIRYTSETTTTTITYTPGTTEPTTTTTTTTTTTTIPATTSA [r9_140_JUSTAS]	0.813 ± 0.12 kcal/mol	0.814 ± 0.14 kcal/mol	0.639 ± 0.062 kcal/mol
SVEKAREALEEAGFEVTRIEVREDGTVRVTVRRDGKLVEIELTVEPPPPVEVVEEEPEVRVERRYSAEDLSA [r9_2_TrROS_Hall]	-0.34 ± 0.42 kcal/mol	0.212 ± 0.35 kcal/mol	0.499 ± 0.15 kcal/mol
SVEKARERLEKLGFKLVSVDPLEDGSVVLTFEFPDNKVVVLVDEDGNARIVAYNPSDGKFSEATFNLDDLSA [r9_2_TrMRF]	2.577 ± 0.024 kcal/mol	2.7 ± 0.038 kcal/mol	2.84 ± 0.066 kcal/mol
SVFEMPIKLTLKRRDPDGKGRKVKVTIRIRFEMPPNLPPDDKNDPERRKMHQMMHSNMHERAESLADPLASA [r9_237_TrROS]	1.6 ± 0.36 kcal/mol	1.67 ± 0.28 kcal/mol	1.41 ± 0.095 kcal/mol
SVKIKINWQRDPEDGRLYLMIEYRFEDDPQQAIEEIKDILERFGFKVPEIESITVDPGNGEITIPIRIPWSA [r9_876_TrROS]	2.62 ± 0.11 kcal/mol	2.66 ± 0.22 kcal/mol	2.64 ± 0.097 kcal/mol
SVTVDEIAEWFANSFQQHGMKDVKVDVTVEPDPKNGRVRVDVQIRMTYPNPDGEKHRFEMTIPVEIPPNDSA [r9_440_TrROS]	1.93 ± 0.075 kcal/mol	1.99 ± 0.12 kcal/mol	1.93 ± 0.051 kcal/mol
SVVLDVPYENRPDLLATIRALVAEKAPPVVVFVEAPEAERARLRRELEALGFTVEPTPVPNRYRITFRPASA [r9_600_TrMRF]	3.07 ± 0.058 kcal/mol	3.15 ± 0.067 kcal/mol	3.15 ± 0.085 kcal/mol
SVYIPIPMGDPEGLKEMLDFIKNILEKNQENGYENVPIPIHMPNGGPFEFPIDPNSTLEEQLDQIEKFIESA [r9_127_TrROS]	0.663 ± 0.078 kcal/mol	1.15 ± 0.24 kcal/mol	1.56 ± 0.11 kcal/mol
SYIKIPFNVWMPPDNAEAMAEEFANNLAQKHGWKIKGIKPVEPVPSPDGEWYPFRVSITIRMPDPEAINASA [r9_302_TrROS]	2.07 ± 0.13 kcal/mol	1.82 ± 0.098 kcal/mol	1.62 ± 0.031 kcal/mol
SYKIHIMRPNGEMEEIPIKHPDGWKINIHRGPNKPFYIMVERYDPDGGPKPKPVIPIDSPEQALDKLKDASA [r9_942_TrROS]	-0.11 ± 0.3 kcal/mol	0.0153 ± 0.2 kcal/mol	-0.123 ± 0.18 kcal/mol
TIVIENASVEQIKNAIKEAIKEGKEVKIIIKASPEEKEKIIEELKKLPEIKKVEKLPNGSIKITIKAKELKS [r1_324_TrROS_Hall]	2.82 ± 0.69 kcal/mol	2.32 ± 0.66 kcal/mol	1.76 ± 0.083 kcal/mol
VDLGIRTESVGGRRYRVLIRRPGTGEPRVLEVEGTLEEARERALREIREEYPDLPVRSINPVPVPAPPWLES [r1_80_TrMRF]	-0.154 ± 0.14 kcal/mol	-0.139 ± 0.15 kcal/mol	-0.153 ± 0.19 kcal/mol
VDPDDPEYQRFVYFVQELAKTIVEEHQEEGPTVDELYITVDPNNVKIEPVDMPPDEWEEHQKEGRPVIPIRS [r1_134_TrROS]	0.187 ± 0.33 kcal/mol	-0.0608 ± 0.28 kcal/mol	0.179 ± 0.14 kcal/mol
WLKFPFPIYNPGFGRPAKFEIELWPDGQLQVTWNGQPILSIPIRIVPPPEVEVDPEYDPNGKEKPKWKYPGS [r1_496_TrROS]	1.81 ± 0.16 kcal/mol	1.39 ± 0.35 kcal/mol	0.438 ± 0.22 kcal/mol
